T1: USP2 (UniProt O75604 259-605)
T1 chain: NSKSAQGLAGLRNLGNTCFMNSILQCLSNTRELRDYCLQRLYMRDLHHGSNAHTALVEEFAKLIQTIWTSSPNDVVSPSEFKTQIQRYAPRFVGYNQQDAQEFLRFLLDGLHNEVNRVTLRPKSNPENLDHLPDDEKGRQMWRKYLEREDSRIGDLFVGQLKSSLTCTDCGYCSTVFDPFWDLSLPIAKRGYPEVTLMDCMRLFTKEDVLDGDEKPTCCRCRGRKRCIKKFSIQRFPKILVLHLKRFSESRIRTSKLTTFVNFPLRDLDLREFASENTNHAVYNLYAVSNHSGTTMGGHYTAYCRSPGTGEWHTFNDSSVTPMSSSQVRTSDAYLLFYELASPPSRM

T2: USP30 (active enzyme in the ubiquitin-AMC assay) (UniProt Q70CQ3 57-517)
T2 chain: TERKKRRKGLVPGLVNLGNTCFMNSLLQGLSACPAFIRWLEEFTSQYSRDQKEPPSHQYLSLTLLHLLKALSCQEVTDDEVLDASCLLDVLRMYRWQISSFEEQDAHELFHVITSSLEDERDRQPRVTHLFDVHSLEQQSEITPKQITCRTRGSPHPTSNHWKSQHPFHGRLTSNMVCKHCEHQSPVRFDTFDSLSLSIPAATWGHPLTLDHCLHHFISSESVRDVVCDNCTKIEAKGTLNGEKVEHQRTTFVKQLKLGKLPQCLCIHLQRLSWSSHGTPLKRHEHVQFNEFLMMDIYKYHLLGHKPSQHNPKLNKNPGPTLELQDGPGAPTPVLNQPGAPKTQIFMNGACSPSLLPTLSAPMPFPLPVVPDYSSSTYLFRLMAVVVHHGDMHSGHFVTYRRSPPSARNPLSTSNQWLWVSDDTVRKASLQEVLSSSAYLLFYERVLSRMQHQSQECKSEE

T3: UCHL3 (UniProt P15374 1-230)
T3 chain: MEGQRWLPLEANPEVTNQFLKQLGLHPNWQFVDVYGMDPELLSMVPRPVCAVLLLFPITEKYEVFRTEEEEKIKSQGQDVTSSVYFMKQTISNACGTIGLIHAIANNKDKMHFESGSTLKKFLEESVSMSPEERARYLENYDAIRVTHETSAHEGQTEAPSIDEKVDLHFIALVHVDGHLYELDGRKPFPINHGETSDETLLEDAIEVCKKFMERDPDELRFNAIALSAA

T4: USP5 (UniProt P45974 1-858)
T4 chain: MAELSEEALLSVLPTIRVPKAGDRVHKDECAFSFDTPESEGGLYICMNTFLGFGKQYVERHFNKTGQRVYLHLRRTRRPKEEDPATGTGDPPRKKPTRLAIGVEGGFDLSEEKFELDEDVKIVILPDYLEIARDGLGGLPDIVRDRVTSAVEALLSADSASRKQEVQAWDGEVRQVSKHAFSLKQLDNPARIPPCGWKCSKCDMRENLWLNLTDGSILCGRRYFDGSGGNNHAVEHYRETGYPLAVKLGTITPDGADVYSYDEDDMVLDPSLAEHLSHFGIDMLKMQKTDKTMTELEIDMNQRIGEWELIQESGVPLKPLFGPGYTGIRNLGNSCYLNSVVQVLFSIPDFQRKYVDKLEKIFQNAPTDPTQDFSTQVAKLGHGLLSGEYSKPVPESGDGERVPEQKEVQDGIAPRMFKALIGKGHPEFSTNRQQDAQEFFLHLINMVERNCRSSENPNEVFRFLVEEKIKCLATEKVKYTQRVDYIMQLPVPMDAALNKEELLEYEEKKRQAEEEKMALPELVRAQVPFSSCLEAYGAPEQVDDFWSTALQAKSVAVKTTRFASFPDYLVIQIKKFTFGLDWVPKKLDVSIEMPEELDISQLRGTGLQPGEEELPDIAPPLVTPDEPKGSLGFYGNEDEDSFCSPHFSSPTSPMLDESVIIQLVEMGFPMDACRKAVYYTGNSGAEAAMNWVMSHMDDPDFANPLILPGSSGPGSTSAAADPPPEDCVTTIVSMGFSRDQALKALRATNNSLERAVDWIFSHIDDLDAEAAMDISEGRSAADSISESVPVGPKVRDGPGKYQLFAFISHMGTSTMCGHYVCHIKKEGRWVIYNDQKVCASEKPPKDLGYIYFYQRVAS


Assays:
Experiment in all cases: ubiquitin-AMC enzyme inhibition
[1] = biological target: T1, USP2
[2] = biological target: T2, USP30 (active enzyme in the …)
[3] = biological target: T3, UCHL3
[4] = biological target: T4, USP5
[5] = biological target: USP7

IC50 [1] [µM]	IC50 [2] [µM]	IC50 [3] [µM]	IC50 [4] [µM]	IC50 [5] [µM]	Binder
~200	121	194	42.9		VSRCYIFWNEMFCDVE [peptide USP30-8]
				31.7	VSRCYIFWNEMFCDVE [pep8]

— patent US20150344888A1 (published 2015)
